Assay results published in article PMC3184176.

T1: FL-Pot1 (Schizosaccharomyces pombe, UniProt O13988 1-555)
T1 sequence: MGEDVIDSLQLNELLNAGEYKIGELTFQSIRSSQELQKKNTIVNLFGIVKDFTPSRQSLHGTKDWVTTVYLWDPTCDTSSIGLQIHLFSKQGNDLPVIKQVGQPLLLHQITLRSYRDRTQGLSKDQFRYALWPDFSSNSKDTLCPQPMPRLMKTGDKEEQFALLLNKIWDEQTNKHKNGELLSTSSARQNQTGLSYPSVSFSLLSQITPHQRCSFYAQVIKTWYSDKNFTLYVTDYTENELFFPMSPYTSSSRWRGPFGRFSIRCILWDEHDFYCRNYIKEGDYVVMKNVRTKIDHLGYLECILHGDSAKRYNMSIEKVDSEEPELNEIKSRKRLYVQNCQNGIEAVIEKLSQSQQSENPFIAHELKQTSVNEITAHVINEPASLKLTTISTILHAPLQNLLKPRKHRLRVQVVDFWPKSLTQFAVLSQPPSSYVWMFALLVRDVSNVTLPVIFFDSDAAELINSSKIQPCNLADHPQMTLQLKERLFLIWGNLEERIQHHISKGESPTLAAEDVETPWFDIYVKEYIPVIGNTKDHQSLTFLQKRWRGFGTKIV

T2: Pot1-DBD (Schizosaccharomyces pombe, UniProt O13988 1-389)
T2 sequence: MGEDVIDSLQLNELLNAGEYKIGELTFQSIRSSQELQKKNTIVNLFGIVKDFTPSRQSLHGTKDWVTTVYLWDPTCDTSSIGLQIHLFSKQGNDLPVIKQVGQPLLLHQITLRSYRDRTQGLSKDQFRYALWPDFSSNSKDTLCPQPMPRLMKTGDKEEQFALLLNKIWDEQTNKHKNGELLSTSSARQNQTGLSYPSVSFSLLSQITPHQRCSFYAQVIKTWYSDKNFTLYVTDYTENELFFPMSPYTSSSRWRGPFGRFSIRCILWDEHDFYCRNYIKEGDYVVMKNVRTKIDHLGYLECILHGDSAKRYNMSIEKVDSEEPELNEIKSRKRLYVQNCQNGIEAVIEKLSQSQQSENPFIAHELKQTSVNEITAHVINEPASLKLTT

T3: Pot1-DBD_L122A (Schizosaccharomyces pombe, UniProt O13988 1-389, L122A)
T3 sequence: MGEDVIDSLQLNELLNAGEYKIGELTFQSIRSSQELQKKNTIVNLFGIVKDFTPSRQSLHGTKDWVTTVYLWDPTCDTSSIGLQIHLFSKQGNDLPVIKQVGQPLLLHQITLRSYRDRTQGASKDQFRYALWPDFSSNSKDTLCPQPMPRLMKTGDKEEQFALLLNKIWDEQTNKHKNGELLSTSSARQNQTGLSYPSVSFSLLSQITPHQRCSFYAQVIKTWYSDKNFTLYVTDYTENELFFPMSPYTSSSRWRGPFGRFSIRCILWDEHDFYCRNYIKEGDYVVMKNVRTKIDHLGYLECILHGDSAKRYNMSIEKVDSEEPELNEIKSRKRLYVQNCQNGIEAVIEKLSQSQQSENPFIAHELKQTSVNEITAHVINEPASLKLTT

T4: Pot1-DBD_Y115A (Schizosaccharomyces pombe, UniProt O13988 1-389, Y115A)
T4 sequence: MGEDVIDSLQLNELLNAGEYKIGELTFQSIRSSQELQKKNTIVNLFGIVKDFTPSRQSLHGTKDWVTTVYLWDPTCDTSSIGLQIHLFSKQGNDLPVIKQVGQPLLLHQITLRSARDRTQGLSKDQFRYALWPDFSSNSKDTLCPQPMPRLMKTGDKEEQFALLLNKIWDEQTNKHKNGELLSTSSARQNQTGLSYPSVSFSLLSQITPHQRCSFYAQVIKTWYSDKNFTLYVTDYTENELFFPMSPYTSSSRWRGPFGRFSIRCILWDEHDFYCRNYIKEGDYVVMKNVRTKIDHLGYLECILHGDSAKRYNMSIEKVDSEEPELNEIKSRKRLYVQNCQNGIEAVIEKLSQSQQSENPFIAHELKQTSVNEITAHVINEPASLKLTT

T5: Pot1-DBD_S123A (Schizosaccharomyces pombe, UniProt O13988 1-389, S123A)
T5 sequence: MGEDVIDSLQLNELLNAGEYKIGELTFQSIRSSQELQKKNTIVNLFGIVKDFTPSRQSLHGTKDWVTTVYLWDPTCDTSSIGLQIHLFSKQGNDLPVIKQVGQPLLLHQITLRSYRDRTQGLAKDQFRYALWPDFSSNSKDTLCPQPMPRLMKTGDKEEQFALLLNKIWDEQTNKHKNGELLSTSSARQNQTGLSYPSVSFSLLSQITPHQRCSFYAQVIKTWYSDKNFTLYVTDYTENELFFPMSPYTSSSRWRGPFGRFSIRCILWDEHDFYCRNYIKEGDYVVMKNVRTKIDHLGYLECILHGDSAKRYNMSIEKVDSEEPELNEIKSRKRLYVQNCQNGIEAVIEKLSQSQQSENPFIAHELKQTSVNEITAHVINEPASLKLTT

T6: Pot1-DBD_D64A (Schizosaccharomyces pombe, UniProt O13988 1-389, D64A)
T6 sequence: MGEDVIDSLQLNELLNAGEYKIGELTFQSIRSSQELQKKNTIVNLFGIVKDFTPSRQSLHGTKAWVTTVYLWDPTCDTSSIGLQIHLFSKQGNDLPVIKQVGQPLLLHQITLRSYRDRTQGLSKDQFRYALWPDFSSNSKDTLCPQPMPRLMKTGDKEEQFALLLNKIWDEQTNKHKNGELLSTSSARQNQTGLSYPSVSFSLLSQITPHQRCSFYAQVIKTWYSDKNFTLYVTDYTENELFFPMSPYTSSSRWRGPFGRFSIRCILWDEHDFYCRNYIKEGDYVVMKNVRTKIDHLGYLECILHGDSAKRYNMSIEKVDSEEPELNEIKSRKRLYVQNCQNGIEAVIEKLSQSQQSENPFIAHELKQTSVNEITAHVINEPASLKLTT

T7: Pot1-DBD_F88A (Schizosaccharomyces pombe, UniProt O13988 1-389, F88A)
T7 sequence: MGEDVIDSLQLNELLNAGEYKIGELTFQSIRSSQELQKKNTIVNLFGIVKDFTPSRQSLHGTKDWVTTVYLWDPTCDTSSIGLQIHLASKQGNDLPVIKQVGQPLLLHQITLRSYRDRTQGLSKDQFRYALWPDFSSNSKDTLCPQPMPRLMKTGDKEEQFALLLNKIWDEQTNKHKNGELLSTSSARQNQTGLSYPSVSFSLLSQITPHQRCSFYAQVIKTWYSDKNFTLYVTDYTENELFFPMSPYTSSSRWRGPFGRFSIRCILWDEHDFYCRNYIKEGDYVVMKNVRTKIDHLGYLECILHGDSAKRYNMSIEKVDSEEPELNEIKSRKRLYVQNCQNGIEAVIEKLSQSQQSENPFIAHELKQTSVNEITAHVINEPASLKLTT

T8: Pot1-DBD_T62A (Schizosaccharomyces pombe, UniProt O13988 1-389, T62A)
T8 sequence: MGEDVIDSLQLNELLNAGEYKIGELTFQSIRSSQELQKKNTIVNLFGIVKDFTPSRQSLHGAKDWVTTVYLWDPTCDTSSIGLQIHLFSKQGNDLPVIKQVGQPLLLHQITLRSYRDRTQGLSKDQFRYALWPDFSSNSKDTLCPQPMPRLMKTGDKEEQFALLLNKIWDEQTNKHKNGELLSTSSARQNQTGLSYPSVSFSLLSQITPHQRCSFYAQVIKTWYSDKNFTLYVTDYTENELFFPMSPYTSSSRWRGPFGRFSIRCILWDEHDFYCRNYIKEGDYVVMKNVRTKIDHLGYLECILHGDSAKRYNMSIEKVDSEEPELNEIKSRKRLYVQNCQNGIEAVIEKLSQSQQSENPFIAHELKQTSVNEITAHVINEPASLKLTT


Columns and labels:
Assay in all cases: EMSA
[1] = target: T1, FL-Pot1
[2] = target: T2, Pot1-DBD
[3] = target: T3, Pot1-DBD_L122A
[4] = target: T4, Pot1-DBD_Y115A
[5] = target: T5, Pot1-DBD_S123A
[6] = target: T6, Pot1-DBD_D64A
[7] = target: T7, Pot1-DBD_F88A
[8] = target: T8, Pot1-DBD_T62A

| Binder | Kd [1] [pM] | further results |
| --- | --- | --- |
| CGTTTGCCAATGCCA (ssDNA) [15 comp GTT] | 10600 ± 300 |  |
| GGTTACGGTTACGGTT (ssDNA) [16mer] | 2.2 ± 0.04 |  |
| GGTTACCCAATGCCA (ssDNA) [6mer_9 comp] | 3.8 ± 0.1 |  |
| TTTTTTTTTTTTTTT (ssDNA) [T15] | 8600 ± 1900 |  |
| GGTTACTTTTTTTTT (ssDNA) [6mer_T9] | 2.6 ± 0.2 |  |
| GGTTACCCAATG (ssDNA) [6mer_6 comp] | 9.5 ± 0.3 |  |
| GGTTACGGTTACG (ssDNA) [13mer] | 2.3 ± 0.3 |  |
| GGTTACGGTTAC (ssDNA) [12mer] | 2.8 ± 0.4 | Kd [2]: 4 ± 0.3 pM; Kd [3]: 0.77 ± 0.23 nM; Kd [4]: 0.049 ± 0.005 nM; Kd [5]: 8.2 ± 0.9 pM; Kd [6]: 3.4 ± 0.67 nM; Kd [7]: 7.7 ± 1.8 nM; Kd [8]: 0.048 ± 0.008 nM |
| GGTTACGGTTACGGTTA (ssDNA) [17mer] | 2.3 ± 0.1 |  |
| GGTTACGGTTACGGT (ssDNA) [15mer] | 2.2 ± 0.1 | Kd [2]: 2.9 ± 0.3 pM; Kd [3]: 0.01 ± 0.0014 nM; Kd [4]: 0.008 ± 0.0007 nM; Kd [5]: 3.7 ± 0.3 pM; Kd [6]: 0.018 ± 0.0024 nM; Kd [7]: 0.12 ± 0.03 nM; Kd [8]: 0.0062 ± 0.0006 nM |
| GGUTACGGTTACGGT (ssDNA, U at 3 = deoxyuridine) [15_T3U] | 2.6 ± 0.2 |  |
| GGTTACTTTTTT (ssDNA) [6mer_T6] | 3.2 ± 0.3 |  |
| GGTTACACGGTTACACGGT (ssDNA) [15mer_2xAC] | 3.2 ± 0.3 |  |
| GGTTACGGTTACGGTTAC (ssDNA) [18mer] | 3.8 ± 0.3 |  |
| GGTTACGGTTACGG (ssDNA) [14mer] | 2.4 ± 0.4 |  |
| GGTUACGGTTACGGT (ssDNA, U at 4 = deoxyuridine) [15_T4U] | 3 ± 0.4 |  |
